Assay results reported in patent publication US11279747 (UNIVERSITAT ZURICH, dated 2022).
Changes are numbered by the printed parent chain.

T1: mouse Pirb (mouse, UniProt P97484 25-642, limits assumed)
T1 construct: Bought protein coated on the ELISA plate; also called PirB (murine homologue to LILRB)
T1 sequence (looked up): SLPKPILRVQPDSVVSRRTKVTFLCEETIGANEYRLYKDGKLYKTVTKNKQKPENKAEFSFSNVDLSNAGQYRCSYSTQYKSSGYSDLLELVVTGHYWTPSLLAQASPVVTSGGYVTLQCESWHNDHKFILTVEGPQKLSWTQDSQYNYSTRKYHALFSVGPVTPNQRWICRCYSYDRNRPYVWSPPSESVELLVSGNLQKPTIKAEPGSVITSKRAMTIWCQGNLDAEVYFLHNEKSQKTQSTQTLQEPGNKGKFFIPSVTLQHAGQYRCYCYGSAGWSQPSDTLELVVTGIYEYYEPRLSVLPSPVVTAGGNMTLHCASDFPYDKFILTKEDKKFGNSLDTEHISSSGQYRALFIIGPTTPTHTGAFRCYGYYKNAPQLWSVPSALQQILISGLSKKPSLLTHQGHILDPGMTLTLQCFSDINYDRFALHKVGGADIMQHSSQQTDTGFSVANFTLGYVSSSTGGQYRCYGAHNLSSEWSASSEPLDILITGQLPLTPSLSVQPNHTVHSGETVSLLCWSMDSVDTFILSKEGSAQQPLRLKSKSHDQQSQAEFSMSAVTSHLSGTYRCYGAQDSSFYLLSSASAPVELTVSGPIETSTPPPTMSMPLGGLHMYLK

B1: A302-Fc (Fc fusion)
chain: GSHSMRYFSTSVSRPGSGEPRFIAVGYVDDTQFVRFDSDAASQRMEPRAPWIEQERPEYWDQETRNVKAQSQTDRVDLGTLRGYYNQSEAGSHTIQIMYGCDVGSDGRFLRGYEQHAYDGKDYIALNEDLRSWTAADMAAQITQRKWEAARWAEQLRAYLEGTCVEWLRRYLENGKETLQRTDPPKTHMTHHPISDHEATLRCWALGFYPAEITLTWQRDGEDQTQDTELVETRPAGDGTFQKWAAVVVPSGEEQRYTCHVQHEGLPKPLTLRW
notes: also called HLA2-Fc; HLA-A30 open conformer; not shown: human IgG4 Fc (human IgG4-Fc vector, InvivoGen)
B2: C082-Fc (Fc fusion)
chain: CSHSMRYFYTAVSRPGRGEPRFIAVGYVDDTQFVQFDSDAASPRGEPRAPWVEQEGPEYWDRETQKYKRQAQTDRVSLRNLRGYYNQSEAGSHTLQRMYGCDLGPDGRLLRGYNQFAYDGKDYIALNEDLRSWTAADTAAQITQRKWEAARTAEQLRAYLEGTCVEWLRRYLENGKKTLQRAEHPKTHVTHHPVSDHEATLRCWALGFYPAEITLTWQRDGEDQTQDTELVETRPAGDGTFQKWAAVVVPSGEEQRYTCHVQHEGLPEPLTLRW
notes: also called HLA2-Fc; HLA-C08 open conformer; not shown: human IgG4 Fc (human IgG4-Fc vector, InvivoGen)
B3: C122-Fc (Fc fusion)
chain: B2 chain with Q35R, T73A, N114D, F116S, T152E, L156W, K177E
notes: also called HLA2-Fc; HLA-C12 open conformer; not shown: human IgG4 Fc (human IgG4-Fc vector, InvivoGen)
B4: B272-Fc (Fc fusion)
chain: GSHSMRYFHTSVSRPGRGEPRFITVGYVDDTLFVRFDSDAASPREEPRAPWIEQEGPEYWDRETQICKAKAQTDREDLRTLLRYYNQSEAGSHTLQNMYGCDVGPDGRLLRGYHQDAYDGKDYIALNEDLSSWTAADTAAQITQRKWEAARVAEQLRAYLEGECVEWLRRYLENGKETLQRADPPKTHVTHHPISDHEATLRCWALGFYPAEITLTWQRDGEDQTQDTELVETRPAGDRTFQKWAAVVVPSGEEQRYTCHVQHEGLPKPLTLRW
notes: also called B27052-Fc; HLA2-Fc; not shown: human IgG4 Fc (human IgG4-Fc vector, InvivoGen)
B5: A252-Fc (Fc fusion)
chain: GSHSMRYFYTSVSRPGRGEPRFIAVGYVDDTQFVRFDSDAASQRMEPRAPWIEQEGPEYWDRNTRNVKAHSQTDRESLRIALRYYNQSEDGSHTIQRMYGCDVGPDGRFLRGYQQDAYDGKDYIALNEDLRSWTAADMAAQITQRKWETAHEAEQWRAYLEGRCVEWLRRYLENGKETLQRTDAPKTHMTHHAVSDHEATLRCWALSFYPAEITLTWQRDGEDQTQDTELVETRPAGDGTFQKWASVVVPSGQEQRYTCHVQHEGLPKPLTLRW
notes: also called HLA2-Fc; HLA-A25 open conformer; not shown: human IgG4 Fc (human IgG4-Fc vector, InvivoGen)
B6: B582-Fc (Fc fusion)
chain: GSHSMRYFYTAMSRPGRGEPRFIAVGYVDDTQFVRFDSDAASPRTEPRAPWIEQEGPEYWDGETRNMKASAQTYRENLRIALRYYNQSEAGSHIIQRMYGCDLGPDGRLLRGHDQSAYDGKDYIALNEDLSSWTAADTAAQITQRKWEAARVAEQLRAYLEGLCVEWLRRYLENGKETLQRADPPKTHVTHHPVSDHEATLRCWALGFYPAEITLTWQRDGEDQTQDTELVETRPAGDRTFQKWAAVVVPSGEEQRYTCHVQHEGLPKPLTLRW
notes: also called HLA2-Fc; HLA-B58 open conformer; not shown: human IgG4 Fc (human IgG4-Fc vector, InvivoGen)
B7: B532-Fc (Fc fusion)
chain: B6 chain with G62R, E63N, R65Q, N66I, M67F, A69T, S70N, A71T
notes: also called HLA2-Fc; HLA-B53 open conformer; not shown: human IgG4 Fc (human IgG4-Fc vector, InvivoGen)
B8: B572-Fc (Fc fusion)
chain: B6 chain with T45M, E46A, R97V, L103V, V194I
notes: also called HLA2-Fc; HLA-B57 open conformer; not shown: human IgG4 Fc (human IgG4-Fc vector, InvivoGen)
B9: human KIR3DL2 (receptor, UniProt P43630 22-340, looked up)
chain: LMGGQDKPFLSARPSTVVPRGGHVALQCHYRRGFNNFMLYKEDRSHVPIFHGRIFQESFIMGPVTPAHAGTYRCRGSRPHSLTGWSAPSNPLVIMVTGNHRKPSLLAHPGPLLKSGETVILQCWSDVMFEHFFLHREGISEDPSRLVGQIHDGVSKANFSIGPLMPVLAGTYRCYGSVPHSPYQLSAPSDPLDIVITGLYEKPSLSAQPGPTVQAGENVTLSCSSWSSYDIYHLSREGEAHERRLRAVPKVNRTFQADFPLGPATHGGTYRCFGSFRALPCVWSNSSDPLLVSVTGNPSSSWPSPTEPSSKSGICRHLH
notes: Bought protein coated on the ELISA plate; also called hu KIR3DL2

target: T2, human KIR3DL1 (human, UniProt P43629 22-340, limits assumed); assay: ELISA (FIG. 5A)
T2 construct: Bought protein coated on the ELISA plate; also called hu KIR3DL1
T2 sequence (P43629 22-340 limits assumed): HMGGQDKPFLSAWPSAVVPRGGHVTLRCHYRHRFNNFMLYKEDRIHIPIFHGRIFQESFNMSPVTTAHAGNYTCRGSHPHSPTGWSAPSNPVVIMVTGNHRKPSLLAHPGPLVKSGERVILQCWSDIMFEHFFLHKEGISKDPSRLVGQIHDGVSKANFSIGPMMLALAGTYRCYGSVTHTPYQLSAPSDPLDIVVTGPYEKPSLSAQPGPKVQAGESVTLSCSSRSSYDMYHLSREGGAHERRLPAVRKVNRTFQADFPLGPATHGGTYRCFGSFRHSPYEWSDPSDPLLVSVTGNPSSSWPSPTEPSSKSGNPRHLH
Experimental: (§1) A) hu KIR3DL1, B) hu KIR3DL2, and C) hu KIR3DL3 are expressed in NK cells and subpopulations of T cells. D) LILRB1, and E) LILRB2 expressed mostly in myeloid cells, F) PirB (murine homologue to LILRB) and G) PTPRJ (on leukocytes is preferentially expressed in MDSCs cells and activated T cells) Figure 5:
(§2) Competition ELISA assays were performed using Maxisorp (Nunc, Switzerland) 96 well plates coated with 10 μg/mL of selected leukocyte receptors (human KIR3DL1, human KIR3DL2, human KIR3DL3, human LILRB1, human LILRB2, human PTPRJ and mouse Pirb) purchased from Creative Biomart. Receptors were incubated for ON 4° C., blocked with 5% milk powder-TBS 2 hrs. HLA_2-Fc selected constructs (A25_2-Fc, A30_2-Fc, B2705_2-Fc, B53_2-Fc, B57_2-Fc, B58_2-Fc, C08_2-F, and C12_2-Fc) and their controls (A25-β2m-Fc, A30-β2m-Fc, B2705-β2m-Fc, B53-β2m-Fc, B57-β2m-Fc, B58-β2m-Fc, C08-β2m-Fc and C12-β2m-Fc) and isotype IgG4 were added at 10 μg/mL for 2 hrs RT. HRP-conjugated antibodies against human Fc were used as detectors.

Row | binding result | Binder
1 | binds | B2
2 | binds | B3

Row | Binder | binding result
3 | B1 | binds

target: T1, mouse Pirb; assay: ELISA (FIG. 5F)
Experimental: as §1, §2

Row | binding result | Binder
4 | binds | B2
5 | binds | B3

target: T3, human KIR3DL3 (human, UniProt Q8N743 26-322, limits assumed); assay: ELISA, receptor coated at 10 µg/mL, HLA2-Fc at 10 µg/mL, anti-human Fc-HRP
T3 construct: Bought protein coated on the ELISA plate; also called hu KIR3DL3
T3 sequence (Q8N743 26-322 limits assumed): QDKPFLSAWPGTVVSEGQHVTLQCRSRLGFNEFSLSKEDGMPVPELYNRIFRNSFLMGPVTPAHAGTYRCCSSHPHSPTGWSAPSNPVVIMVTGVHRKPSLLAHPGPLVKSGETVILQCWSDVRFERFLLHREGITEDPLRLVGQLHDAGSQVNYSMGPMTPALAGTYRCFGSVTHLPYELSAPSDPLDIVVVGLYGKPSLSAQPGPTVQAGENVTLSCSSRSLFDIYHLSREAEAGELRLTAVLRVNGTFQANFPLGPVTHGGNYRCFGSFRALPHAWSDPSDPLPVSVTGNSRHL
Experimental: as §2

Row | binding result | Binder
6 | binds | B4
7 | binds | B6
8 | binds | B7
9 | binds | B8

Row | Binder | binding result
10 | B1 | binds
11 | B5 | binds

target: T4, human LILRB1 (human, UniProt Q8NHL6 24-458, limits assumed); assay: as above
T4 construct: Bought protein coated on the ELISA plate
T4 sequence (Q8NHL6 24-458 limits assumed): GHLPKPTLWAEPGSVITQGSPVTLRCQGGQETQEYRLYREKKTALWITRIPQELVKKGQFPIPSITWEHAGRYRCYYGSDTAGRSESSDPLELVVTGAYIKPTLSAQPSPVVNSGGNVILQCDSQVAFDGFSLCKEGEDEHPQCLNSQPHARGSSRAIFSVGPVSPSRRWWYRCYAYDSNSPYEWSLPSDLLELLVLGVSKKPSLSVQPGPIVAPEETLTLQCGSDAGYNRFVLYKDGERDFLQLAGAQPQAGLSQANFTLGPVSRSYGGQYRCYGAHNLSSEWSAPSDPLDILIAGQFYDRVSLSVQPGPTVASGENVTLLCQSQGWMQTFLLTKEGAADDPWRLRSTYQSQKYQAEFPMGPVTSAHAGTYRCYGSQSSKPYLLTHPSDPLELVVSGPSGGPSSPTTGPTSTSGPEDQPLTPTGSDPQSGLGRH
Experimental: as §2

Row | binding result | Binder
12 | binds | B4
13 | binds | B6
14 | binds | B7
15 | binds | B8

Row | Binder | binding result
16 | B1 | binds
17 | B5 | binds

target: T1, mouse Pirb; assay: as above
Experimental: as §2

Row | binding result | Binder
18 | binds | B4
19 | binds | B6
20 | binds | B7
21 | binds | B8

Row | Binder | binding result
22 | B1 | binds
23 | B5 | binds

target: B9; assay: as above
Experimental: as §2

Row | binding result | Binder
24 | binds | B4
25 | binds | B6
26 | binds | B7
27 | binds | B8

Row | Binder | binding result
28 | B5 | binds

target: T5, human LILRB2 (human, UniProt Q8N423 22-458, limits assumed); assay: as above
T5 construct: Bought protein coated on the ELISA plate
T5 sequence (Q8N423 22-458 limits assumed): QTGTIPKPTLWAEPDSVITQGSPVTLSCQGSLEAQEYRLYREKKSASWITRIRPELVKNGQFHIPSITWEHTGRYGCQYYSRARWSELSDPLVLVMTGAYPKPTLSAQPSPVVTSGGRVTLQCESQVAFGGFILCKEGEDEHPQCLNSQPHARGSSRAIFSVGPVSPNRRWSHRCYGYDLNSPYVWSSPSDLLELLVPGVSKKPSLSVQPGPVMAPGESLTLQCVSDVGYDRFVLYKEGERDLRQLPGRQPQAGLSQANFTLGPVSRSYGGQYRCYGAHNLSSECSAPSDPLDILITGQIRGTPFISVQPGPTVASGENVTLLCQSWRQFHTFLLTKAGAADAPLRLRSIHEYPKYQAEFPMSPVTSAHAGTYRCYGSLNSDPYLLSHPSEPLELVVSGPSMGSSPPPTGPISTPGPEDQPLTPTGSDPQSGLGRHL
Experimental: as §2

Row | binding result | Binder
29 | binds | B4
30 | binds | B6
31 | binds | B7
32 | binds | B8

Row | Binder | binding result
33 | B1 | binds
34 | B5 | binds

target: T2, human KIR3DL1; assay: as above
Experimental: as §2

Row | binding result | Binder
35 | binds | B4
36 | binds | B6
37 | binds | B7
38 | binds | B8

Row | Binder | binding result
39 | B5 | binds

target: T6, B57-β2m-Fc (human, UniProt P61769 21-119, limits assumed); assay: ELISA, receptor coated at 10 µg/mL, anti-human Fc-HRP
T6 construct: HLA-Fc heavy chain with beta2m, made in CHO cells; also called HLA-β2m-Fc; control MHC-Ia heterotrimer; not shown: human IgG4 Fc (human IgG4-Fc vector, InvivoGen)
Experimental: as §2

Row | binding result | Binder
40 | no binding (tested: 10 µg/mL) | B9

target: T7, A30-β2m-Fc (human, UniProt P61769 21-119); assay: as above
T7 construct: HLA-Fc heavy chain with beta2m, made in CHO cells; also called HLA-β2m-Fc; control MHC-Ia heterotrimer; not shown: human IgG4 Fc (human IgG4-Fc vector, InvivoGen)
Experimental: as §2

Row | binding result | Binder
41 | no binding (tested: 10 µg/mL) | B9

target: T8, B53-β2m-Fc (human, UniProt P61769 21-119, limits assumed); assay: as above
T8 construct: HLA-Fc heavy chain with beta2m, made in CHO cells; also called HLA-β2m-Fc; control MHC-Ia heterotrimer; not shown: human IgG4 Fc (human IgG4-Fc vector, InvivoGen)
Experimental: as §2

Row | binding result | Binder
42 | no binding (tested: 10 µg/mL) | B9

target: T9, B27-β2m-Fc (human, UniProt P61769 21-119); assay: as above
T9 construct: HLA-Fc heavy chain with beta2m, made in CHO cells; also called B2705-β2m-Fc; HLA-β2m-Fc; not shown: human IgG4 Fc (human IgG4-Fc vector, InvivoGen)
Experimental: as §2

Row | binding result | Binder
43 | no binding (tested: 10 µg/mL) | B9

target: T10, A25-β2m-Fc (human, UniProt P61769 21-119, limits assumed); assay: as above
T10 construct: HLA-Fc heavy chain with beta2m, made in CHO cells; also called HLA-β2m-Fc; control MHC-Ia heterotrimer; not shown: human IgG4 Fc (human IgG4-Fc vector, InvivoGen)
Experimental: as §2

Row | binding result | Binder
44 | no binding (tested: 10 µg/mL) | B9

target: T11, B58-β2m-Fc (human, UniProt P61769 21-119, limits assumed); assay: as above
T11 construct: HLA-Fc heavy chain with beta2m, made in CHO cells; also called HLA-β2m-Fc; control MHC-Ia heterotrimer; not shown: human IgG4 Fc (human IgG4-Fc vector, InvivoGen)
Experimental: as §2

Row | binding result | Binder
45 | no binding (tested: 10 µg/mL) | B9

target: T4, human LILRB1; assay: ELISA (FIG. 5D)
Experimental: as §1, §2

Row | binding result | Binder
46 | binds | B2
47 | binds | B3

target: B9; assay: ELISA (FIG. 5B)
Experimental: as §1, §2

Row | binding result | Binder
48 | binds | B2
49 | binds | B3

Row | Binder | binding result
50 | B1 | binds

target: T3, human KIR3DL3; assay: ELISA (FIG. 5C)
Experimental: as §1, §2

Row | binding result | Binder
51 | binds | B2
52 | binds | B3

target: T5, human LILRB2; assay: ELISA (FIG. 5E)
Experimental: as §1, §2

Row | binding result | Binder
53 | binds | B2
54 | binds | B3
